# ± gives the uncertainty stated by the source.
# Experiment: amyloid nucleation score (Sup35N fusion, yeast selection) (log enrichment); library NNK3; higher = more nucleation; inactive = no reads after selection
# Procedure, shortened: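 Growth for 7 days at 30°C on medium lacking adenine and uracil followed a 24-hour induction with 100 μM copper sulfate of psi-negative yeast expressing peptides of 20 random codons fused to Sup35N. Input and output plasmid inserts were sequenced with Illumina, and sequences with under 100 input reads were excluded. Nucleation score is the DiMSum log enrichment of output over input reads, centred on the mode score of non-aggregating sequences.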
row,Substance,amyloid nucleation score
1,SWGPLINLRFQLLARCTPGL,inactive
2,LLLCYYNGIWRFDGRLS,inactive
3,GMGCTMLNYLMLWESFDTRP,0.586 ± 0.17
4,IYAQELLSVANLLRFL,inactive
5,HCSYEFNS,-0.001 ± 0.4
6,GQFCCVCARIKLCRYSFNCY,2.45 ± 0.082
7,WKYRSKRWMMLSASVRLYSS,inactive
8,VRSRLGSGRDEKPRALSSCM,inactive
9,YVMDNNFM,inactive
10,FFLWVYLLKSFSS,inactive
11,IECRARRSVCLL,inactive
12,TRFSVDVRIFWIINYFLWLL,inactive
13,TYCYTVVTASMDAFEG,inactive
14,MFGVVTGLTLGSSTFHA,inactive
15,YYVSYN,inactive
16,VCRDSVILLDLLGAMCVVYG,inactive
17,TGRYVNWRASLSFAYNRMMI,inactive
18,NVVSWGHDLYGKKAPALWEV,inactive
19,CVEVWLPYFFLSMS,inactive
20,CQFVKVMCLHSYILRPSPPP,inactive
21,NCFMRLMVFAKRVIGCLQPP,0.15 ± 0.43
22,CQYFLSWRASVC,inactive
23,YPSDPLLILDLGIAAC,inactive

row,Substance,amyloid nucleation score
1,CCIMQPCSVVVYQWSQNRSR,3.14 ± 0.053
2,YLFPRVSLICERIWIENVGY,inactive
3,DMIYMLVAFARFIYLDTCIR,inactive
4,LVVCGVRWSMFIGIS,inactive
5,YLRKVSYNMHCRNWSWGDWS,inactive
6,VSDCESMAN,inactive
7,RFYLIKPAI,inactive
8,DLNLVMSSGSRDRLNSLLRR,inactive
9,NPVGT,inactive
10,VYISFGFLILFLFSEFLPCV,inactive
11,GFEVNKACQLIEYPLFFTRL,inactive
12,GIVNYRPAYP,inactive
13,QKLSCPMFLMAIIVSKITKM,inactive
14,ITCCM,inactive
15,QAVTMRTGVKCYQIGRAWIG,-0.313 ± 0.84
16,WFMREAWIWSAPFWPWIRNT,inactive
17,SRITLPDIIMFHCMFNGTDV,0.339 ± 0.67
18,MFIMVRRRLT,inactive
19,NRNATSCGKPAFNKWNYFCQ,inactive
20,RAMCTALTSGTYRTCC,inactive
21,YGYSTSFSG,0.586 ± 0.28
22,GFEAPWA,inactive
23,FFISVLFWNPGISFRITIAA,inactive

row,Substance,amyloid nucleation score
1,SWCQGNCGMLLAHRSYKRAY,-0.48 ± 0.55
2,VLVIGMWKTFYNYMQILCQA,inactive
3,GELKFLVLNRFE,inactive
4,NLMFVLHRTSWSNFCLKRKC,inactive
5,TMYCLHLNIMSCWSNSTKKT,2.57 ± 0.083
6,RVIYG,inactive
7,VIGVCFSKFWWNTHDTRSDS,0.665 ± 0.23
8,ISTIRYNISYANAYYSSRQG,0.699 ± 0.21
9,RFKTF,inactive
10,RLPSREIVHCVQNSGRNPVG,0.079 ± 0.35
11,ISRSYCCVYT,inactive
12,RLNWASVRRFTLIGRSVRRS,inactive
13,RGPSAPNFWE,inactive
14,TLFLFIMVMGYSLANLVDSS,inactive
15,PVEWP,-0.114 ± 0.78
16,HFKFLYDS,inactive
17,GLHIRFQNYLRQGQ,1.22 ± 0.17
18,VRTFEAVLCVPIRLDWVRDR,inactive
19,WIGSRGHQCPYRSSVTMMGT,inactive
20,TFCLSYFHLL,inactive
21,RGAVCVNFTSRWSWGIGEHH,1.33 ± 0.11
22,TASRFFCRWVYFRKGVSRCS,inactive
23,LMSAFSIRRGYCCVENSASR,inactive

row,Substance,amyloid nucleation score
1,LCPRRMA,0.592 ± 0.29
2,RHWIWLMQWKD,1.11 ± 0.14
3,FFYYMYMFDVITILRVIMGC,inactive
4,MPGLAVFGCPRRCCGFRGLV,inactive
5,PVDIVHVHAIRIMFMEGSDV,inactive
6,CFSELIYMLLNVDGNFSLRV,inactive
7,GDYDTMAEVKPFLDEKC,inactive
8,PVSLNDIYIIKCANKNYEVI,inactive
9,TVTCRVQRHLDLN,inactive
10,YARVMSVAMSWEDQNSTKKR,0.467 ± 0.19
11,CYWTYVRLSSVFRDHIVALT,inactive
12,HFCLEYTLNVTMHAWTL,inactive
13,YTLIIRLCFFNIGCAYRFSM,inactive
14,SGAEDFQV,inactive
15,MYGLHLNPALITVYFRGKGL,-0.018 ± 0.34
16,RMLLICNFGIVCQPMTSLQR,2.24 ± 0.063
17,LAASVNYILRNIDCGVRMRF,inactive
18,RLPCPCNSVACVRTWISRCS,inactive
19,MFFVRNFCQYVSRRC,1.83 ± 0.088
20,GHLESVFRSVDTLVSYSS,0.138 ± 0.55
21,GSVQAFCISKP,inactive
22,RVMRMLSIVWFRWNEIVIFL,inactive
23,KSDEVTFMWHSHGIRMFR,0.357 ± 0.4

row,Substance,amyloid nucleation score
1,MFAADDLIPTKIVGSCF,inactive
2,YPLASYGLMCGFETDYPGAA,inactive
3,CSAFAYRSSWRFAWNTIFDY,inactive
4,SIWKISTRMQTFFCRNM,1.46 ± 0.1
5,SNTFRTIGS,inactive
6,CVNLRNIRFSTLRGMGGWI,inactive
7,LGVYYVNNRYFADFKGVEHG,0.154 ± 0.67
8,KGSSSSIDTIFLYRGYFSIA,inactive
9,PCASLM,inactive
10,GLLSHLDHLWVCGGWGSRKR,inactive
11,IMRMRLVCWTYKYNSLLPFV,inactive
12,GVMMVMFARL,1.73 ± 0.091
13,FQMKCNFWKI,1.24 ± 0.077
14,PIILKIPV,inactive
15,YPSGPHDCYCHTLYEFPFFL,inactive
16,VSNYDLESS,inactive
17,SMKQMNMQHSSPRNRTDGRR,inactive
18,LKWAV,inactive
19,QMCTQLSIMI,inactive
20,NFFWFYWIWKSSGGYTGWLL,inactive
21,CRYNVIYWGIDSCYHMWSWR,inactive
22,YLRQIYFPCSTP,inactive
23,VDFLCNPWVERINGYVWEVV,inactive

row,Substance,amyloid nucleation score
1,VGLNQSLNRWPTSSSQHMGG,inactive
2,NSGLSG,inactive
3,VLIDYYMMSTSN,inactive
4,EYIAFISTIPDMSLFSDVLF,0.653 ± 0.11
5,GYQLRRMMQTMRMKYRISSR,inactive
6,FLGLLLIYQPNSIE,inactive
7,CGDLVGTSKYSTLLEWRS,inactive
8,TNMYSDSVIYVMHYGIPGGP,1.63 ± 0.092
9,LIQVIGLSIALRTMSCLRGS,inactive
10,TVFCLVKFRLEFYVTMPEYC,inactive
11,AIRKL,inactive
12,SWFGLAIRSV,inactive
13,DTDNWVLTDKTTGCSAVNGG,inactive
14,NTVEPLYCCCSNRCISVSYV,inactive
15,QVLTFVYFHDNVMVLGWEYS,0.206 ± 0.78
16,FFNIMCYRHWLKVKLYYIVK,1.9 ± 0.06
17,LWQDMRLLSGLL,inactive
18,VSTSPNIDSLRCFCIHVKRR,inactive
19,STLGTRSRDFLMIFSNRSTE,inactive
20,SARSGAAISTSSNKVTPVYT,inactive
21,NFSTRTGIITIGFCRVCGMR,1.97 ± 0.096
22,FISWMLAR,0.9 ± 0.12
23,SMNFVLLRGGRRMIQQDRVR,inactive

row,Substance,amyloid nucleation score
1,TLKRWLNLDRSSYIRESIKR,inactive
2,FSSFLISYRYLIVFRQMVSI,inactive
3,VKPLSRY,inactive
4,LVRLGMQRCRPLT,inactive
5,LCMMMPRIIQFICHSYEHVD,inactive
6,SEISWQVLCKNEDEYCHFWE,inactive
7,RSFVVESPDKYHPIVMFGTD,inactive
8,RNYRGTSEIRCVPWLSSVSW,inactive
9,SLLTFCFHIESLWMWYWMCH,inactive
10,ESNRTFTKSTFFLTNEVKGL,inactive
11,YSSKIFHRLTK,inactive
12,ILIPNNFLLMQLDWLLIEF,inactive
13,CFVKGFTIETFWLKVVGIRG,inactive
14,VSNVSGSIHWGNFCAMNIAV,inactive
15,YWCLYLNSNCKMW,0.31 ± 0.44
16,TGLLYFRFDCGSSIIRSRYY,0.875 ± 0.1
17,GFLPA,inactive
18,RYEVPGTSFLNM,inactive
19,EGHHPVGGGLLIFASLT,inactive
20,GLKCGFRPSSVINSYWSSQL,inactive
21,SGLSDPPPLLE,inactive
22,MPPLNNCLDPYFLVCCNMVY,inactive
